Assay [1] deals with T1, Human SIRPa protein (Acro) (human, UniProt P78324 31-370, limits assumed).
T1 construct: Commercial soluble protein used as the flow cytometry staining reagent; also called SIRPα; signal regulatory protein a
Put plainly: flow cytometry; CAR19-α T cells stained with soluble human SIRPa protein. From the text: Using a flow cytometry, the expression of anti-CD19 scFv in CAR-T cells was detected with FITC goat anti-human Fab (Thermo Fisher), and the expression of anti-SIRPa scFv was detected with Human SIRPa protein (Acro). It can be seen that all the CARs in the CAR-T cells prepared in this example can be effectively expressed (FIG. 7), and the immunosuppressive molecule in CAR19-α T cells can also be effectively expressed (FIG. 8).
Background: In flow cytometry, cells or beads pass a laser one at a time.

The target in assay [2] is T2, Human IRP60 protein (Kactus) (human, UniProt Q9UGN4 18-178, limits assumed).
T2 construct: Commercial soluble protein used as the flow cytometry staining reagent; also called CD300a
T2 sequence (looked up): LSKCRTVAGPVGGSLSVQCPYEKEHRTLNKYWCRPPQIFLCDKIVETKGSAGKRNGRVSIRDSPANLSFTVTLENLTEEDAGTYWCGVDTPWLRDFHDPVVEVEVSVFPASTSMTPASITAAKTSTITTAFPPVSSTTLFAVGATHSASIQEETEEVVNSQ
Description: flow cytometry; CAR19-60 T cells stained with soluble human IRP60 protein. From the text: Using a flow cytometry, the expression of anti-CD 19 scFv in CAR-T cells was detected with FITC goat anti-human Fab (Thermo Fisher), and the expression of anti-IRP60 scFv was detected with Human IRP60 protein (Kactus). It can be seen that all the CARs in the CAR-T cells prepared in this example can be effectively expressed (FIG. 12), and the immunosuppressive molecule in CAR19-60 T cells can also be effectively expressed (FIG. 13).

T1 sequence (P78324 31-370 limits assumed): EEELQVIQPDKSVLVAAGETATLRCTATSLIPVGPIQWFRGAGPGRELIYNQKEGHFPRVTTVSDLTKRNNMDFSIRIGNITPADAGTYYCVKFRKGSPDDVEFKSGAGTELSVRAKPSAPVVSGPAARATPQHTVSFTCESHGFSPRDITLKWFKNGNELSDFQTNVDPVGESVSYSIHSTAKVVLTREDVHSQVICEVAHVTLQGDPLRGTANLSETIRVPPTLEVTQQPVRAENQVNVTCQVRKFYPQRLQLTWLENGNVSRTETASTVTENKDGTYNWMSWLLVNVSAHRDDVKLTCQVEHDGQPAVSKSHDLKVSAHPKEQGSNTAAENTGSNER

B1: immunosuppressive molecule targeting SIRPa (anti-SIRPa scFv, IgG4 hinge region, CD28 transmembrane region, CD28 co-stimulatory domain), expressed on CAR19-α T … (scFv)
chain: EVQLVESGGGLVQPGGSLRLSCAASGFNISYYFIHWVRQAPGKGLEWVASVYSSFGYTYYADSVKGRFTISADTSKNTAYLQMNSLRAEDTAVYYCARFTFPGLFTGFFGAYLGSLDYWGQGTLVTVSSGGGSGGGSGGGSDIQMTQSPSSLSASVGDRVTITCRASQSVSSAVAWYQQKPGKAPKLLIYSASSLYSGVPSRFSGSRSGTDFTLTISSLQPEDFATYYCQQAVNWVGALVTFGQGTKVEIKRESKYGPPCPPCPFWVLVVVGGVLACYSLLVTVAFIIFWVRSKRSRLLHSDYMNMTPRRPGPTRKHYQPYAPPRDFAAYRS
notes: Membrane-anchored scFv on B2M-knockout T cells that also express a CD19 CAR; also called anti-SIRPa antibody
Consider B1, for which, in assay [1], the binding result is given as “binds”.

B2: immunosuppressive molecule targeting IRP60 (anti-IRP60 scFv, IgG4 hinge region, CD28 transmembrane region, CD28 co-stimulatory domain), expressed on CAR19-60 T … (scFv)
chain: EVQLQQSGAELVKPGASVKLSCKASGYTFTSYWMQWVKQRPGQGLEWIGEIDPSDSYTNYNQKFKGKATLTVDTSSSTTYMQLSSLTSEDSAVYYCARWGMAYGTSSYWYFDVWGTGTTVTVSSAGGGSGGGSGGGSDIQMTQTTSSLSASLGDRVTISCRASQDISNYLNWYQQKPDGTVKLLIYYTSRLHSGVPSRFSGSGSGTDYSLTISNLEQEDIATYFCQQGNTLPWTFGGGTKLEIKESKYGPPCPPCPFWVLVVVGGVLACYSLLVTVAFIIFWVRSKRSRLLHSDYMNMTPRRPGPTRKHYQPYAPPRDFAAYRS
notes: Membrane-anchored scFv on B2M-knockout T cells that also express a CD19 CAR; also called anti-IRP60 antibody
Take B2: the binding result in assay [2] is “binds”.

(Values after patent US20260201048A1 (NANJING BIOHENG BIOTECH, published 2026).)
